Results: patent publication US11857601
pKd: −log10 of the molar value.

Key:
hIL2Rβ [1] = assay: literature reference; Charych, PLOS ONE 2017
hIL2Rα [2] = assay: literature reference; Charych, PLOS ONE 2017
hIL2Rβ [3] = assay: literature reference; Stauber, PNAS 2006
hIL2Rα [4] = assay: literature reference; Stauber, PNAS 2006

| pKd (hIL2Rβ [1]) | pKd (hIL2Rα [2]) | pKd (hIL2Rβ [3]) | pKd (hIL2Rα [4]) | Substance |
| --- | --- | --- | --- | --- |
| 5.75 | 6.72 | – | – | NKTR-214 (1-PEG-IL2) |
| 5.40 | 6.31 | – | – | NKTR-214 (2-PEG-IL2) |
| 6.62 | 8.07 | – | – | NKTR-214 (IL2) |
| – | – | 6.84 | 8.00 | hIL2w |
